In PMC2195629 one finds fold adhesion over untransfected CHO cells data, which are given here for 1 substance.

For the test, the target named is Glycocalicin, the soluble extracellular portion of human GP Ibα (human) (UniProt P07359). Description: cell adhesion assay.
UniProt P07359, sequence (P07359 17-531): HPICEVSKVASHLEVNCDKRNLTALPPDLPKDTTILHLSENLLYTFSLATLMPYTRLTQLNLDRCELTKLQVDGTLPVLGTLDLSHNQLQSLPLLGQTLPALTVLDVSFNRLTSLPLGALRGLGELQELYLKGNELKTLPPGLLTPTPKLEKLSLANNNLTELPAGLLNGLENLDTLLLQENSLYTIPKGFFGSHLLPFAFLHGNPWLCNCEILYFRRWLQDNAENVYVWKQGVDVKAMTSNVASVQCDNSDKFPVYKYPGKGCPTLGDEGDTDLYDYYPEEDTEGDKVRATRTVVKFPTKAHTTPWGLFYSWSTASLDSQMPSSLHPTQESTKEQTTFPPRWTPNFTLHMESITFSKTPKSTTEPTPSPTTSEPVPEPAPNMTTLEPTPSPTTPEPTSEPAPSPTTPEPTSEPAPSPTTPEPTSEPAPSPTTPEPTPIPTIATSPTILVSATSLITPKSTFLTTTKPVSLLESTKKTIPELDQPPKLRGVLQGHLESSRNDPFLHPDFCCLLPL

With “phosphatidylinositol glycan–linked form of P-selectin on CHO cells (CHO-P) (from UniProt P16109 42-830) (receptor)”, the fold adhesion over untransfected CHO cells amounted to 5 fold.
